Measured values as given in US8409859B2, “Differentiation of non-embryonic stem cells to cells having a pancreatic phenotype” (Regents of the University of Minnesota, priority 2005, dated 2013).

B1: GDF11: member of the BMP/TGFbeta superfamily (protein, UniProt O95390 299-407, looked up)
Growth/differentiation factor …: NLGLDCDEHSSESRCCRYPLTVDFEAFGWDWIIAPKRYKANYCSGQCEYMFMQKYPHTHLVQQANPRGSAGPCCTPTKMSPINMLYFNDKQQIIYGKIPGMVVDRCGCS
B2: FGF10: FGF produced by mesenchymal cells, used at about 100 ng/mL (protein, UniProt O15520 38-208, looked up)
Fibroblast growth factor 10: QALGQDMVSPEATNSSSSSFSSPSSAGRHVRSYNHLQGDVRWRKLFSFTKYFLKIEKNGKVSGTKKENCPYSILEITSVEIGVVAVKAINSNYYLAMNKKGKLYGSKEFNNDCKLKERIEENGYNTYASFNWQHNGRQMYVALNGKGAPRRGQKTRRKNTSAHFLPMVVHS

Test system: rat MAPCs
Experiment: Cytokine mediated differentiation of rat MAPCs, Q-RT-PCR and cell survival
Assay type: cell-based
Experimental: For Q-RT-PCR reactions described herein, the primer sequences are presented in Tables 3-5 and the following protocols were used: RNA was extracted from the cells with the aid of the RNeasy Mini Kit (Qiagen; Valencia Calif.), followed by a DNase Treatment with DNA-Free™ (Ambion, Austin, Tex.). The RNA was reverse transcribed with TaqMan (Applied Biosystems, Foster City, Calif.; Step 1 (Incubation): 25° C., 10 min; Step 2 (RT): 48° C., 30 min; Step 3 (RT Inactivation): 95° C., 10 min).
Following reverse transcription, Quantitative Real Time PCR (Q-RT-PCR) was performed as follows: Step 1: 50° C., 2 min (Incubation); Step 2: 95° C., 10 min (Taq activation); Step 3: 95° C., 15 sec (Denaturation) followed by 60° C., 1 min (Extension) and repeat for 40 cycles; Step 4: 95° C., 15 sec (Dissociation); Step 5: 60° C., 20 sec (Melting curve); Step 6: 95° C., 15 sec.
In an initial series of studies, the effect of cell density (about 10^4-10^5 cells/cm^2), ECM component (fibronectin, collagen, matrigel) and different concentrations (10-100 ng/mL) of bFGF (10-100 ng/mL), FGF2 (10-100 ng/mL), Activin A (e.g., about 10 ng/mL to about 100 ng/mL), BMP4 (e.g., about 10 ng/mL to about 50 ng/mL), retinoic acid (about 10^−6M), EGF (e.g., about 10 to about 100 ng/mL), FGF10 (e.g., about 50 to about 150 ng/mL, including about 100 ng/mL), HGF (e.g., about 10 to about 100 ng/mL), GDF11 (e.g., about 50 to abut 150 ng/mL), cyclopamine (e.g., about 10 μM), anti-SHH antibody (Ab; e.g., about 10 μg/mL), nicotinamide (e.g., 5 μM to about 50 μM, including about 10 μM), exendin 4 (about 5 nM to about 50 nM, including about 10 nM), betacellulin (e.g., about 50 to abut 150 ng/mL) alone or in combinations of 2 or 3 and in different temporal sequences, on the induction of transcription factors, insulin, glucagon and somatostatin expression levels after 6, 12 and 18 days using Q-RT-PCR was determined.
Subsequent addition of factors believed to play a role in further proliferation and differentiation from pancreas-committed cells to mature endocrine pancreas, including EGF (e.g., about 50 ng/mL), HGF (e.g., about 50 ng/mL) and FGF10 (e.g., about 100 ng/mL), either alone or in combination was tested. […] Further optimization was obtained by adjusting the duration of the different steps along the differentiation course, as well addition of β-cellulin (50 ng/mL).

| Molecule | Ins1 and Ins2 mRNA levels (GDF11 added) | cell survival (activin-A, BMP4 and cyclopamine or anti-SHH Ab withdrawn after d6, cells then maintained with the factor) |
| --- | --- | --- |
| B1 | a further increase |  |
| B2 |  | not |
